Source: article PMC6515374, “Virus-Like Particle Facilitated Deposition of Hydroxyapatite Bone Mineral on Nanocellulose after Exposure to Phosphate and Calcium Precursors” (International Journal of Molecular Sciences, 2019)

Molecular target: the molecule itself
Test: transmission electron microscopy; purified VLPs on carbon coated copper grids, stained with 2% uranyl acetate, 80 kV; also confirmed by atomic force microscopy (Figure S1)

B1: Tobacco mosaic virus coat protein subunit with the E50Q and D77N mutations (assembles into TMV virus-like particles) (natural protein, UniProt P69687 1-159, looked up)
chain: MSYSITTPSQFVFLSSAWADPIELINLCTNALGNQFQTQQARTVVQRQFSQVWKPSPQVTVRFPDSDFKVYRYNAVLNPLVTALLGAFDTRNRIIEVENQANPTTAETLDATRRVDDATVAIRSAINNLIVELIRGTGSYNRSSFESSSGLVWTSGPAT
notes: Tobacco mosaic virus coat protein, codon optimized for bacterial expression, in pET-21a(+) at NdeI/XhoI with a stop codon to prevent fusion to the His tag; No tag: a stop codon stands before the vector's His tag; Assembles without viral RNA into rods of 18 nm diameter and variable length; also called TMV VLPs; TMV CP; source: E. coli BL21(DES)pLysS, purified (chloroform, PEG 8000/NaCl …)
B1: binds.
